Reference: US20250002574A1 (SUNSHINE LAKE PHARMA, published 2025)
Where a chain is given by its changes, count along the chain named.

How the values were obtained:
IL-11 [1] = biological target: T1, IL-11 (UniProt P20809 22-199, limits assumed); assay: ELISA on IL-11, monoclonal hybridoma antibody
T1 construct: also called IL-11 protein; IL-11 antigen
T1 sequence (looked up): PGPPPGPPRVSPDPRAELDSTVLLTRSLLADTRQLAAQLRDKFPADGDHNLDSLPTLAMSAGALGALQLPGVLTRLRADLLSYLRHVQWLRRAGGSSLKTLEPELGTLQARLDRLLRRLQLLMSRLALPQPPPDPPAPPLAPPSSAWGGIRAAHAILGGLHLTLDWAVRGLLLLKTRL

IL-11 [2] = biological target: T1, IL-11; assay: flow, IL-11 + antibody on IL-11R cells; lower = more blocking
IL-11 [3] = biological target: T1, IL-11; assay: phage ELISA on IL-11
IL-11 [4] = biological target: T1, IL-11; assay: flow cytometry of phage clone; cells not given

B1: 3-6A4 (hybridoma) (antibody, human IgG1, kappa, V domains shown)
VH: QIQLVQSGPELKKPGETVKISCKASGYTFTTNGINWVKQAAGKGLKWMGWINTNTGEPTNAEELKGRFAFSLETSASTAYLQINNLKNEDAAIYFCAREGAFGLDYWGQGTSVTVSS
VL: SIVMTQSPKFLLVSAGDRVIITCKASQSVSNDVVWYQQKPGQSPKLLIYYGSHRNTGVPTRFTGSGYGTDFTFTISTVQAEDLAVYFCQQDFFSPWTFGGGTKLEIKR
notes: only the variable parts apply for certain
Q: For B1, which OD450 (IL-11 [1]) is on record?
A: 1.58 OD450

Q: And the “FITC Mean” value (IL-11 [2])?
A: 3040 mean fluorescence

B2: 3-5B2-2G4 (antibody, human IgG1, kappa, V domains shown)
VH: QIQLVQSGPELKKPGETVKISCKASGYTFTNYGMNWVKQAPGKGLKWMGWINTNTGEPTYAEEIKGRFAFSLETSASTAYLQINNLKNEDTATYFCSREGIYGMDSWGQGTSVTVSS
VL: B1 VL with S7T, I20T, Q37R, G51A, H53N, N55Y, T56I, T60D, F92Y, F93Y
Q: What does the source list for B2?
A: OD450 (IL-11 [1]): 1.65 OD450; FITC Mean (IL-11 [2]): 19800 mean fluorescence

B3: 5-20E11-5F2 (hybridoma subclone) (antibody, human IgG1, kappa, V domains shown)
VH: QVQLQQSGAELVRPGTSAKISCKASDYTFTNYWLGWLKQRPGHGLEWIGHIYPGGGYTNYNEKFKGKATLTADTSSSTAYMQLSSLTSEDSAVYFCARVRSGNDALDFWGQGTSVTVSS
VL: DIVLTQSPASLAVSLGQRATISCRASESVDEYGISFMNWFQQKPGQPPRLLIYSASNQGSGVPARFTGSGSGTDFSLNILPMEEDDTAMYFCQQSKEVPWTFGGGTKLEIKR
Q: B3 was tested. Which OD450 (IL-11 [1]) did it give?
A: 1.6 OD450

Q: What about the “FITC Mean” value (IL-11 [2]) of the same binder?
A: 3110 mean fluorescence

B4: 1E12 (scFv)
scFv: QVQLVQSGAEVKKPGASVKVSCKASDYTFTNYWLGWVRQAPGQGLEWMGHIYPGGGYTNYNEKFKGRVTMTRDTSTSTVYMELSSLRSEDTAVYYCARVSSGNDALDLWGQGTLVTVSSGGGGSGGGGSGGGGSEIVLTQSPATLSLSPGERATLSCRASESVDEYGISFMNWFQQKPGQAPRLLIYSGSNEGSGIPARFSGSGSGTDFTLTISSLEPEDFAVYFCNQSKEVPWTFGGGTKLEIK
notes: As m119: scFv on phage
Q: B4 was tested. Which ELISA (IL-11 [3]) did it give?
A: 2.2

Q: What about the “Flow (Mean)” value (IL-11 [4]) of the same binder?
A: 6320 mean fluorescence

B5: Original sequence (1H9) (scFv)
scFv: B4 scFv with S100R, L108F, G189A, E192Q, N227Q
notes: Template scFv of the phage library, on phage; also called ScFv VH-Linker-VL of VH1+VL3
Q: Which results are given for B5?
A: ELISA (IL-11 [3]): 1.16; Flow (Mean) (IL-11 [4]): 450 mean fluorescence

B6: 2E2 (scFv)
scFv: B4 scFv with L108F, G189A, E192Q, N227Q, V232L
notes: As m119: scFv on phage
Q: With B6 as the binder, how does the ELISA (IL-11 [3]) read?
A: 2.58

Q: What about the “Flow (Mean)” value (IL-11 [4]) of the same binder?
A: 2100 mean fluorescence

B7: 2E7 (scFv)
scFv: B4 scFv with G54S, L108F, G189A, E192Q, N227Q, V232L
notes: As m119: scFv on phage
Q: What does the source list for B7?
A: ELISA (IL-11 [3]): 2.19; Flow (Mean) (IL-11 [4]): 1990 mean fluorescence

B8: 2F1 (scFv)
scFv: B4 scFv with L108F, G189A, E192Q, N227Q, V232L
notes: As m119; the printed mutations are the same as those of 2E2
Q: What does the source list for B8?
A: ELISA (IL-11 [3]): 2.1; Flow (Mean) (IL-11 [4]): 2390 mean fluorescence

B9: 1F7 (scFv)
scFv: B4 scFv with G35A, S100R, L108F, L155V, R183T, G189A, E192L, N227Q
notes: As m119: scFv on phage
Q: How did the ELISA (IL-11 [3]) turn out when B9 was run?
A: 2.38

Q: And the “Flow (Mean)” value (IL-11 [4])?
A: 1860 mean fluorescence

B10: 1F10 (scFv)
scFv: B4 scFv with S100R, L108I, G189A, E192Q, S194D, N227Q, E231D
notes: As m119: scFv on phage
Q: What does the source list for B10?
A: ELISA (IL-11 [3]): 2.6; Flow (Mean) (IL-11 [4]): 2640 mean fluorescence

B11: 1F12 (scFv)
scFv: B4 scFv with L108F, G189A, E192Q, G193A, N227Q, V232L
notes: As m119: scFv on phage
Q: For B11, which ELISA (IL-11 [3]) is on record?
A: 2.59

Q: What about the “Flow (Mean)” value (IL-11 [4]) of the same binder?
A: 4140 mean fluorescence

B12: 1F9 (scFv)
scFv: B4 scFv with T30H, L108F, G189A, E192Q, N227Q, V232L
notes: As m119: scFv on phage
Q: For B12, which ELISA (IL-11 [3]) is on record?
A: 2.59

Q: And the “Flow (Mean)” value (IL-11 [4])?
A: 3820 mean fluorescence

B13: 1G11 (scFv)
scFv: B4 scFv with L108F, G189A, E192Q, G193A, N227Q, V232L
notes: As m119; the printed mutations are the same as those of 1F12
Q: What does the source list for B13?
A: ELISA (IL-11 [3]): 2.58; Flow (Mean) (IL-11 [4]): 2900 mean fluorescence

B14: 2F2 (scFv)
scFv: B4 scFv with G122E, G189A, E192Q, N227Q
notes: As m119: scFv on phage
Q: For B14, which ELISA (IL-11 [3]) is on record?
A: 2.65

Q: What about the “Flow (Mean)” value (IL-11 [4]) of the same binder?
A: 2000 mean fluorescence

B15: 1G9 (scFv)
scFv: B4 scFv with K13Q, S100R, L108F, G131D, G189A, E192R, S214N, N227Q
notes: As m119: scFv on phage
Q: How did the ELISA (IL-11 [3]) turn out when B15 was run?
A: 2.81

Q: And the “Flow (Mean)” value (IL-11 [4])?
A: 2240 mean fluorescence

B16: 2G9 (scFv)
scFv: B4 scFv with L108F, S188G, G189A, E192Q, N227Q, V232L
notes: As m119: scFv on phage
Q: How did the ELISA (IL-11 [3]) turn out when B16 was run?
A: 2.09

Q: What about the “Flow (Mean)” value (IL-11 [4]) of the same binder?
A: 1910 mean fluorescence
